The assay addresses membrane-embedded MraY from Aquifex aeolicus used for structure-guided disulfide cross-bridge experiments (Aquifex aeolicus) (UniProt O66465). As to the kind of experiment: cross-linking.

For orientation: stoichiometry N means the number of molecules, sites or subunits per partner or assembly. In the case of “membrane-embedded MraY from Aquifex aeolicus used for structure-guided disulfide cross-bridge experiments (from UniProt O66465 1-359) (enzyme)”, the stoichiometry N is 2.
